According to the supplement of paper PMC9233669:
This sample holds only a part of the variants without activity.

Experiments:
biotinyl-Phe-oxazolone = test: self-aminoacylation, catalytic enhancement (BFO) (fold over background); higher = more active; k-Seq, kA / k0A0; sequences stand for … in GGGAAUGGAUCCACAUCUACGAAUUC…UUCACUGCAGACUUGACGAAGCUG
How it was run: (§1)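 Catalytic enhancement equals the median kA over the uncatalyzed rate, the latter read from the low-activity peak of a bimodal Gaussian fit. Values of kA came from fitting each sequence's fraction reacted to a pseudo-first-order model, with 1000 bootstraps. Reacted RNA was captured with streptavidin and quantified by triplicate qPCR and Illumina sequencing after 90 minutes at room temperature with 2–1250 μM biotinyl-aminoacyl-oxazolone and 0.43 μM mutagenized RNA pools bearing a 21-nt variable region.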

biotinyl-Trp-oxazolone = test: self-aminoacylation, catalytic enhancement (BWO) (fold over background); higher = more active; k-Seq, kA / k0A0; sequences stand for … in GGGAAUGGAUCCACAUCUACGAAUUC…UUCACUGCAGACUUGACGAAGCUG
How it was run: as §1

biotinyl-Met-oxazolone = test: self-aminoacylation, catalytic enhancement (BMO) (fold over background); higher = more active; k-Seq, kA / k0A0; sequences stand for … in GGGAAUGGAUCCACAUCUACGAAUUC…UUCACUGCAGACUUGACGAAGCUG
How it was run: as §1

biotinyl-Ile-oxazolone = test: self-aminoacylation, catalytic enhancement (BIO) (fold over background); higher = more active; k-Seq, kA / k0A0; sequences stand for … in GGGAAUGGAUCCACAUCUACGAAUUC…UUCACUGCAGACUUGACGAAGCUG
How it was run: as §1

biotinyl-Leu-oxazolone = test: self-aminoacylation, catalytic enhancement (BLO) (fold over background); higher = more active; k-Seq, kA / k0A0; sequences stand for … in GGGAAUGGAUCCACAUCUACGAAUUC…UUCACUGCAGACUUGACGAAGCUG
How it was run: as §1

biotinyl-Val-oxazolone = test: self-aminoacylation, catalytic enhancement (BVO) (fold over background); higher = more active; k-Seq, kA / k0A0; sequences stand for … in GGGAAUGGAUCCACAUCUACGAAUUC…UUCACUGCAGACUUGACGAAGCUG
How it was run: as §1

| Sequence | self-aminoacylation (biotinyl-Phe-oxazolone) | self-aminoacylation (biotinyl-Trp-oxazolone) | self-aminoacylation (biotinyl-Met-oxazolone) | self-aminoacylation (biotinyl-Ile-oxazolone) | self-aminoacylation (biotinyl-Leu-oxazolone) | self-aminoacylation (biotinyl-Val-oxazolone) |
| --- | --- | --- | --- | --- | --- | --- |
| CCACACUUUAAACAAUCGGUC [Fam1B.1 aminoacylation ribozyme variant] | 2.02 | 1.3 | 0.633 | 0.718 | 0.733 | 0.825 |
| CCACACUUUAAGCAAUAGGUC [Fam1B.1 aminoacylation ribozyme variant] | 1.07 | 0.444 | 0.592 | 0.619 | 0.578 | 0.683 |
| CCACACUUUAAGCAAUCGGUA [Fam1B.1 aminoacylation ribozyme variant] | 0.889 | 0.553 | 0.722 | 0.788 | 0.63 | 0.95 |
| CCACACUUUAAGCGAUCGGUC [Fam1B.1 aminoacylation ribozyme variant] | 0.891 | 1.03 | 1.16 | 1.13 | 1.25 | 1.11 |
| CCACAGAUCAAGCAAUCGGUC [Fam1B.1 aminoacylation ribozyme variant] | 2.39 | 1.61 | 0.576 | 1.01 | 0.81 | 0.824 |
| CCACAGUACAAGCAAUCGGUC [Fam1B.1 aminoacylation ribozyme variant] | 1.77 | 0.861 | 1.27 | 1.17 | 1.03 | 1.24 |
| CCACAGUUCAAGCAAUCGGUA [Fam1B.1 aminoacylation ribozyme variant] | 0.787 | 0.707 | 1.28 | 1.08 | 1.01 | 1.13 |
| CCACAGUUCAAGCAGUCGGUC [Fam1B.1 aminoacylation ribozyme variant] | 0.63 | 0.757 | 1.01 | 0.937 | 1.04 | 1.2 |
| CCACAGUUCACGCAAUCGGUC [Fam1B.1 aminoacylation ribozyme variant] | 3.2 | 2.1 | 1.51 | 1.45 | 1.73 | 1.86 |
| CCACAGUUCAUGCAAUCGGUC [Fam1B.1 aminoacylation ribozyme variant] | 0.779 | 0.884 | 0.972 | 1.1 | 1.16 | 1.12 |
| CCACAUUUCAAGCAACCGGUC [Fam1B.1 aminoacylation ribozyme variant] | 1.11 | 1.34 | 1.09 | 1.53 | 1.11 | 1.64 |
| CCACAUUUCAAGCAAUCGGGC [Fam1B.1 aminoacylation ribozyme variant] | 1.7 | 2.91 | 3.55 | 3.08 | 2.78 | 2.7 |
| CCACAUUUCAAGCAAUCGGUU [Fam1B.1 aminoacylation ribozyme variant] | 1.25 | 1.2 | 1.62 | 1.59 | 1.56 | 1.71 |
| CCACAUUUCUAGCAAUCGGUC [Fam1B.1 aminoacylation ribozyme variant] | 1.49 | 1.22 | 1.35 | 1.83 | 1.4 | 1.76 |
| CCACAUUUGAAGCAAUCGGUC [Fam1B.1 aminoacylation ribozyme variant] | 1.09 | 0.886 | 1.04 | 1.28 | 1.17 | 1.31 |
| CCACCCGUCAAGCAAUCGGUC [Fam1B.1 aminoacylation ribozyme variant] | 1.12 | 1.08 | 1.2 | 1.24 | 1.12 | 1.44 |
| CCACCCUACAAGCAAUCGGUC [Fam1B.1 aminoacylation ribozyme variant] | 0.931 | 1.16 | 1.3 | 1.36 | 1.19 | 1.17 |
| CCACCCUUCAAACAAUCGGUC [Fam1B.1 aminoacylation ribozyme variant] | 81.3 | 38.9 | 1.43 | 1.39 | 2.18 | 1.86 |
| CCACCCUUCAAGCAAUAGGUC [Fam1B.1 aminoacylation ribozyme variant] | 0.807 | 0.452 | 0.575 | 0.645 | 0.529 | 0.711 |
| CCACCCUUCAAGCAAUCAGUC [Fam1B.1 aminoacylation ribozyme variant] | 5.72 | 1.94 | 0.672 | 0.736 | 0.775 | 0.828 |
| CCACCCUUCAAGCAAUCGGAC [Fam1B.1 aminoacylation ribozyme variant] | 0.866 | 0.664 | 0.991 | 1.04 | 0.712 | 1.31 |
| CCACCCUUCAAGCAAUCGUUC [Fam1B.1 aminoacylation ribozyme variant] | 0.85 | 0.742 | 0.584 | 0.888 | 0.611 | 0.89 |
| CCACCCUUCAAGCACUCGGUC [Fam1B.1 aminoacylation ribozyme variant] | 0.826 | 1.46 | 1.14 | 1.54 | 1.15 | 1.68 |
| CCACCCUUCAAGGAAUCGGUC [Fam1B.1 aminoacylation ribozyme variant] | 3.31 | 4 | 1.34 | 1.36 | 1.27 | 1.32 |
| CCACCCUUCAGGCAAUCGGUC [Fam1B.1 aminoacylation ribozyme variant] | 1.82 | 1.71 | 1.57 | 1.71 | 1.55 | 2.12 |
| CCACCCUUUAAGCAAUCGGUC [Fam1B.1 aminoacylation ribozyme variant] | 1.34 | 0.888 | 0.892 | 1.16 | 0.983 | 1.21 |

| Sequence | self-aminoacylation (biotinyl-Phe-oxazolone) | self-aminoacylation (biotinyl-Trp-oxazolone) | self-aminoacylation (biotinyl-Met-oxazolone) | self-aminoacylation (biotinyl-Ile-oxazolone) | self-aminoacylation (biotinyl-Leu-oxazolone) | self-aminoacylation (biotinyl-Val-oxazolone) |
| --- | --- | --- | --- | --- | --- | --- |
| CCACGCGUCAAGCAAUCGGUC [Fam1B.1 aminoacylation ribozyme variant] | 0.748 | 0.802 | 0.841 | 0.827 | 0.71 | 1.2 |
| CCACGCUUCAAGCAAACGGUC [Fam1B.1 aminoacylation ribozyme variant] | 0.644 | 0.544 | 0.457 | 0.647 | 0.477 | 0.665 |
| CCACGCUUCAAGCAAUCGGUG [Fam1B.1 aminoacylation ribozyme variant] | 5.52 | 4.43 | 3.73 | 2.49 | 5.09 | 2.41 |
| CCACGGUUCAAGCAAUCGGUC [Fam1B.1 aminoacylation ribozyme variant] | 2.64 | 2.21 | 1.02 | 1.08 | 1.07 | 1.22 |
| CCACGUCAAACAAUCGGUCUG [Fam1A.1 aminoacylation ribozyme variant] | 2.2 | 2.31 | 1.75 | 1.89 | 1.36 | 1.95 |
| CCACGUUUCAAGCAAUCGGUC [Fam1B.1 aminoacylation ribozyme variant] | 77.2 | 37.6 | 2.85 | 2.68 | 3.36 | 3.47 |
| CCACUCUUCAAGCAAGCGGUC [Fam1B.1 aminoacylation ribozyme variant] | 0.629 | 0.585 | 0.806 | 0.909 | 1.09 | 0.97 |
| CCACUCUUCAAGCAAUCGAUC [Fam1B.1 aminoacylation ribozyme variant] | 1.28 | 0.516 | 0.448 | 0.542 | 0.522 | 0.735 |
| CCACUCUUCAAGUAAUCGGUC [Fam1B.1 aminoacylation ribozyme variant] | 4.71 | 3.88 | 0.823 | 0.854 | 0.969 | 1.08 |
| CCACUCUUCACGCAAUCGGUC [Fam1B.1 aminoacylation ribozyme variant] | 0.819 | 0.952 | 1.05 | 1.08 | 1.13 | 1.21 |
| CCACUUCAAACAAUCGGGCUG [Fam1A.1 aminoacylation ribozyme variant] | 27.3 | 27.2 | 2.13 | 2.12 | 2.63 | 3.05 |
| CCACUUCAAACAAUCGGUCAG [Fam1A.1 aminoacylation ribozyme variant] | 13.7 | 9.79 | 0.992 | 1.01 | 1.03 | 1.04 |
| CCACUUCAAACAAUCGGUCUA [Fam1A.1 aminoacylation ribozyme variant] | 28.5 | 17.4 | 0.991 | 1.19 | 1.5 | 0.99 |
| CCACUUCAAACAAUCGGUUUG [Fam1A.1 aminoacylation ribozyme variant] | 80.3 | 39.5 | 1.37 | 1.39 | 2.57 | 1.83 |
| CCACUUCAAACUAUCGGUCUG [Fam1A.1 aminoacylation ribozyme variant] | 0.866 | 1.39 | 1.39 | 1.44 | 1.16 | 1.46 |
| CCACUUCCAACAAUCGGUCUG [Fam1A.1 aminoacylation ribozyme variant] | 1.13 | 1.6 | 1.11 | 0.991 | 1.15 | 1.11 |
| CCACUUUUCAAGCAAUCGGUC [Fam1B.1 aminoacylation ribozyme variant] | 1.58 | 1.06 | 1.1 | 1.25 | 1.1 | 1.32 |
| CCAGACUUCAACCAAUCGGUC [Fam1B.1 aminoacylation ribozyme variant] | 51.2 | 31.4 | 1.63 | 1.39 | 2.1 | 1.72 |
| CCAGACUUCAAGCAAUCAGUC [Fam1B.1 aminoacylation ribozyme variant] | 12.6 | 5.08 | 0.826 | 1.04 | 1.03 | 0.837 |
| CCAGACUUCAAGCAAUCGAUC [Fam1B.1 aminoacylation ribozyme variant] | 1.51 | 0.639 | 0.559 | 0.714 | 0.614 | 0.778 |
| CCAGACUUCAAGCGAUCGGUC [Fam1B.1 aminoacylation ribozyme variant] | 1.63 | 1.82 | 1.17 | 1.36 | 1.83 | 1.8 |
| CCAGACUUCAGGCAAUCGGUC [Fam1B.1 aminoacylation ribozyme variant] | 1.79 | 1.83 | 1.36 | 1.45 | 1.57 | 1.64 |
| CCAGAUUUCAAGCAAUCGGUC [Fam1B.1 aminoacylation ribozyme variant] | 3.36 | 2.91 | 1.48 | 1.5 | 1.38 | 1.4 |
| CCAUACAUCAAGCAAUCGGUC [Fam1B.1 aminoacylation ribozyme variant] | 1.06 | 0.687 | 0.792 | 1.04 | 0.841 | 0.981 |
| CCAUACUUCAAGCAAUCCGUC [Fam1B.1 aminoacylation ribozyme variant] | 0.96 | 0.766 | 0.829 | 1.15 | 0.949 | 1.12 |
